In publication PMC4833948:

Experiments:
[1] = molecular target: hNHE1cdt D1D2-(AXA)2 (human) (UniProt P19634)
[2] = molecular target: hNHE1cdt D3-AXA (human) (UniProt P19634)
[3] = molecular target: hNHE1cdt F1-A (human) (UniProt P19634)
[4] = molecular target: hNHE1cdt F2-AA (human) (UniProt P19634)
[5] = molecular target: human NHE1 C-terminal distal tail, M + I680-Q815 (hNHE1cdt WT) (human) (UniProt P19634)

k app of phosphorylation of S693 of hNHE1cdt by aERK2 (time-resolved NMR, 25 °C) [1]: 0.319 h⁻¹ | k app of phosphorylation of S723/S726 of hNHE1cdt by aERK2 (decrease of the S723 peak; time-resolved NMR, 25 °C) [1]: 0.061 h⁻¹ | k app of phosphorylation of S771 of hNHE1cdt by aERK2 (time-resolved NMR, 25 °C) [1]: 0.0066 h⁻¹ | k app of phosphorylation of S785 of hNHE1cdt by aERK2 (time-resolved NMR, 25 °C) [1]: 0.0302 h⁻¹ | k app of phosphorylation of T779 of hNHE1cdt by aERK2 (time-resolved NMR, 25 °C) [1]: 0.157 h⁻¹ | k app of phosphorylation of S693 of hNHE1cdt by aERK2 (time-resolved NMR, 25 °C) [2]: 0.349 h⁻¹ | k app of phosphorylation of S723/S726 of hNHE1cdt by aERK2 (decrease of the S723 peak; time-resolved NMR, 25 °C) [2]: 0.0592 h⁻¹ | k app of phosphorylation of S771 of hNHE1cdt by aERK2 (time-resolved NMR, 25 °C) [2]: 0.007 h⁻¹ | k app of phosphorylation of S785 of hNHE1cdt by aERK2 (time-resolved NMR, 25 °C) [2]: 0.0325 h⁻¹ | k app of phosphorylation of T779 of hNHE1cdt by aERK2 (time-resolved NMR, 25 °C) [2]: 0.141 h⁻¹ | k app of phosphorylation of S693 of hNHE1cdt by aERK2 (time-resolved NMR, 25 °C) [3]: 0.3 h⁻¹ | k app of phosphorylation of S723/S726 of hNHE1cdt by aERK2 (decrease of the S723 peak; time-resolved NMR, 25 °C) [3]: 0.0741 h⁻¹ | k app of phosphorylation of S771 of hNHE1cdt by aERK2 (time-resolved NMR, 25 °C) [3]: 0.0047 h⁻¹ | k app of phosphorylation of S785 of hNHE1cdt by aERK2 (time-resolved NMR, 25 °C) [3]: 0.0088 h⁻¹ | k app of phosphorylation of T779 of hNHE1cdt by aERK2 (time-resolved NMR, 25 °C) [3]: 0.147 h⁻¹ | k app of phosphorylation of S693 of hNHE1cdt by aERK2 (time-resolved NMR, 25 °C) [4]: 0.444 h⁻¹ | k app of phosphorylation of S723/S726 of hNHE1cdt by aERK2 (decrease of the S723 peak; time-resolved NMR, 25 °C) [4]: 0.127 h⁻¹ | k app of phosphorylation of S771 of hNHE1cdt by aERK2 (time-resolved NMR, 25 °C) [4]: 0.0088 h⁻¹ | k app of phosphorylation of S785 of hNHE1cdt by aERK2 (time-resolved NMR, 25 °C) [4]: 0.012 h⁻¹ | k app of phosphorylation of T779 of hNHE1cdt by aERK2 (time-resolved NMR, 25 °C) [4]: 0.144 h⁻¹ | k app of phosphorylation of S693 of hNHE1cdt by aERK2 (time-resolved NMR, 25 °C) [5]: 0.349 h⁻¹ | k app of phosphorylation of S723/S726 of hNHE1cdt by aERK2 (decrease of the S723 peak; time-resolved NMR, 25 °C) [5]: 0.0821 h⁻¹ | k app of phosphorylation of S771 of hNHE1cdt by aERK2 (time-resolved NMR, 25 °C) [5]: 0.0088 h⁻¹ | k app of phosphorylation of S785 of hNHE1cdt by aERK2 (time-resolved NMR, 25 °C) [5]: 0.0305 h⁻¹ | k app of phosphorylation of T779 of hNHE1cdt by aERK2 (time-resolved NMR, 25 °C) [5]: 0.165 h⁻¹
Substance: active ERK2 (aERK2) (from UniProt P28482 1-360) (enzyme)
